Data from PMC2928751 (2010).

B1: Gli3(280-478), wild type [modified: [35S]-methionine labelled; [35S]-methionine labelled] [human] / GST-JNK3 [human] (parent complex)
chain 1: SSPRLSARPSRKRTLSISPLSDHSFDLQTMIRTSPNSLVTILNNSRSSSSASGSYGHLSASAISPALSFTYSSAPVSLHMHQQILSRQQSLGSAFGHSPPLIHPAPTFPTQRPIPGIPTVLNPVQVSSGPSESSQNKPTSESAVSSTGDPMHNKRSKIKPDEDLPSPGARGQQEQPEGTTLVKEEGDKDESKQEPEVIY
chain 2: MSLHFLYYCSEPTLDVKIAFCQGFDKQVDVSYIAKHYNMSKSKVDNQFYSVEVGDSTFTVLKRYQNLKPIGSGAQGIVCAAYDAVLDRNVAIKKLSRPFQNQTHAKRAYRELVLMKCVNHKNIISLLNVFTPQKTLEEFQDVYLVMELMDANLCQVIQMELDHERMSYLLYQMLCGIKHLHSAGIIHRDLKPSNIVVKSDCTLKILDFGLARTAGTSFMMTPYVVTRYYRAPEVILGMGYKENVDIWSVGCIMGEMVRHKILFPGRDYIDQWNKVIEQLGTPCPEFMKKLQPTVRNYVENRPKYAGLTFPKLFPDSLFPADSEHNKLKASQARDLLSKMLVIDPAKRISVDDALQHPYINVWYDPAEVEAPPPQIYDKQLDEREHTIEEWKELIYKEVMNSEEKTKNGVVKGQPSPSAQVQQ
B2: Gli3(280-478), wild type [modified: [35S]-methionine labelled; [35S]-methionine labelled] [human] / GST-JNK1 [human] (parent complex)
chain 1: B1 chain 1
chain 2: MSRSKRDNNFYSVEIGDSTFTVLKRYQNLKPIGSGAQGIVCAAYDAILERNVAIKKLSRPFQNQTHAKRAYRELVLMKCVNHKNIIGLLNVFTPQKSLEEFQDVYIVMELMDANLCQVIQMELDHERMSYLLYQMLCGIKHLHSAGIIHRDLKPSNIVVKSDCTLKILDFGLARTAGTSFMMTPYVVTRYYRAPEVILGMGYKENVDLWSVGCIMGEMVCHKILFPGRDYIDQWNKVIEQLGTPCPEFMKKLQPTVRTYVENRPKYAGYSFEKLFPDVLFPADSEHNKLKASQARDLLSKMLVIDASKRISVDEALQHPYINVWYDPSEAEAPPPKIPDKQLDEREHTIEEWKELIYKEVMDLEERTKNGVIRGQPSPLAQVQQ

Variants of: B1
Test: GST pull-down of in vitro translated protein, quantified; 20 µg GST-JNK3; read off a plot

Variant	response
chain 1 R11A, chain 1 K12A, chain 1 R13A, chain 1 L15A, chain 1 I17A	~0.35 % of input (axis unlabelled; 5% input bar = 5)

Variants of: B2
Test: GST pull-down of in vitro translated protein, quantified; 30 µg GST-JNK1; read off a plot

Variant	response
chain 1 R11A, chain 1 K12A, chain 1 R13A, chain 1 L15A, chain 1 I17A	~0.2 % of input (axis unlabelled; 5% input bar = 5)
